According to patent publication US20260234234A1 (QILU PUGET SOUND BIOTHERAPEUTICS, published 2026):
Where a chain is given by its changes, count along the chain named. In names and notes the source's numbering stands. Each block holds one binder with its values, some of them ahead of it.

Columns and labels:
[1] = target: T1, Avitag_c-MYC_His6_hTSLP QB11631 with mutations of R127A + R130S (human); assay: cell-based or functional assay
[2] = target: T2, Avitag_FLAG_His6_cyTSLP QB11632 (wild type) (cynomolgus monkey); assay: cell-based or functional assay
T2 chain: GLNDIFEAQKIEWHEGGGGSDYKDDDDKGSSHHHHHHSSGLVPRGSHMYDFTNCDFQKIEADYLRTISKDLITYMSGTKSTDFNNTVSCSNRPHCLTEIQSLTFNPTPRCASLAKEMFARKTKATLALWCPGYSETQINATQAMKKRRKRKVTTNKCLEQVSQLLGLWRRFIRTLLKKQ

[3] = target: T2, Avitag_FLAG_His6_cyTSLP QB11632 (wild …); assay: cell-based or functional assay
[4] = target: T3, cyTSLP (R127A, R130S), ACRO Biosystems TSP-C52H4 (HEK293) (cynomolgus monkey, UniProt A0A7N9CAT7 29-159); assay: SPR, captured antibody, monomeric TSLP analyte, 25 C, 1:1 Langmuir fit
T3 construct: also called Acro-RA-RS

[5] = target: T2, Avitag_FLAG_His6_cyTSLP QB11632 (wild …); assay: as above
[6] = target: T4, Avitag_FLAG_His6_cyTSLP QB11633 with mutations of R127A + R130S (cynomolgus monkey); assay: as above
T4 construct: Substitutions and tags already in the entry; also called cyTSLP (R127A+R130S)
T4 chain: T2 chain with R147A, R150S

[7] = target: T5, cyTSLP, ACRO Biosystems TSP-C52H8 (HEK293) (cynomolgus monkey, UniProt A0A7N9CAT7 29-159); assay: as above
T5 construct: also called Acro WT

[8] = target: T6, cyTSLP (R127A, R130S), Sino Biological 90911-C08H-100 (HEK293) (cynomolgus monkey, UniProt A0A7N9CAT7 29-159); assay: as above
T6 construct: also called Sino-RA-RS

[9] = target: T1, Avitag_c-MYC_His6_hTSLP QB11631 with …; assay: cell-based or functional assay; remark: listed apart in the source
[10] = target: T1, Avitag_c-MYC_His6_hTSLP QB11631 with …; assay: cell-based or functional assay; remark: listed apart in the source
[11] = target: Avitag_c-MYC_His6_hTSLP (wild type) QB11630 (human); assay: cell-based or functional assay
[12] = target: Avitag_c-MYC_His6_hTSLP (wild type) QB11630 (human); assay: cell-based or functional assay; remark: listed apart in the source
[13] = target: T7, hTSLP, ACRO Biosystems TSP-H52Hb (HEK293) (human, UniProt Q969D9 29-159, limits assumed); assay: SPR, captured antibody, monomeric TSLP analyte, 25 C, 1:1 Langmuir fit
T7 construct: also called Acro-WT

[14] = target: T1, Avitag_c-MYC_His6_hTSLP QB11631 with …; assay: as above
[15] = target: T8, Avitag_c-MYC_His6_hTSLP (wild type) QB11630 (human); assay: as above
T8 construct: N-terminal tags are part of the entry; also called in-house hTSLP native antigen QB11630

[16] = target: hTSLP, R&D Systems 1398-TS-010 (E. coli) (human, UniProt Q969D9 29-159, limits assumed); assay: as above
[17] = target: T8, Avitag_c-MYC_His6_hTSLP (wild type) …; assay: cell-based or functional assay; remark: listed apart in the source
[18] = target: T1, Avitag_c-MYC_His6_hTSLP QB11631 with …; assay: cell-based or functional assay; remark: listed apart in the source
[19] = target: T2, Avitag_FLAG_His6_cyTSLP QB11632 (wild …); assay: cell-based or functional assay
[20] = target: T2, Avitag_FLAG_His6_cyTSLP QB11632 (wild …); assay: cell-based or functional assay
[21] = target: T9, native hTSLP derived from human Small Airway Epithelial Cells (healthy donor 1 and donor 2) (human, UniProt Q969D9 29-159, limits assumed); assay: cell-based or functional assay
[22] = target: T8, Avitag_c-MYC_His6_hTSLP (wild type) …; assay: cell-based or functional assay; remark: listed apart in the source
[23] = target: T8, Avitag_c-MYC_His6_hTSLP (wild type) …; assay: cell-based or functional assay; remark: listed apart in the source
[24] = target: T4, Avitag_FLAG_His6_cyTSLP QB11633 with …; assay: cell-based or functional assay
[25] = target: T1, Avitag_c-MYC_His6_hTSLP QB11631 with …; assay: cell-based or functional assay; remark: listed apart in the source
[26] = target: T9, native hTSLP derived from human Small …; assay: cell-based or functional assay; remark: listed apart in the source
[27] = target: T10, Avitag_c-MYC_His6-tagged hIL-33 (Ser112-Thr270), QB10975 (human); assay: SPR competition, antibody titrated against 10 nM hIL-33, over immobilised hST2-Fc
T10 construct: Entry includes N-terminal Avitag, c-MYC and His6 tags; reduced with DTT to the active form; also called active hIL-33; reduced hIL-33
T10 chain: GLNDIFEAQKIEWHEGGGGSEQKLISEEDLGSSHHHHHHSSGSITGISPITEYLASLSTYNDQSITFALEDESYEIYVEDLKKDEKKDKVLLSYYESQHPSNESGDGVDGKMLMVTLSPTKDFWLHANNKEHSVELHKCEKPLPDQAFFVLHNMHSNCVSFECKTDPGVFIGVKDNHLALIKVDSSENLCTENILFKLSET

[28] = target: T10, Avitag_c-MYC_His6-tagged hIL-33 …; assay: SPR (Biacore) blocking: mAb premixed with 10 nM hIL-33, flowed over ST2-Fc on a CM5 chip; blocked partner ST2-Fc
[29] = target: T11, His6-tagged cyIL-33 (Ser112-Ile270), QB10976 (cynomolgus monkey); assay: SPR, Biacore T200
T11 construct: Entry includes N-terminal Avitag, FLAG and His6 tags; isoform X1, NCBI XP_005581824; also called cyIL-33 antigen
T11 chain: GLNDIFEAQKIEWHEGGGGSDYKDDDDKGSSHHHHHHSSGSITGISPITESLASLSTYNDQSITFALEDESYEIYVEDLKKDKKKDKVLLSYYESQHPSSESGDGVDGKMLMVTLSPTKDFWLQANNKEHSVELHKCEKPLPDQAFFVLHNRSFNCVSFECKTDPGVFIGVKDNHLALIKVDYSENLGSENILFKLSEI

[30] = target: T8, Avitag_c-MYC_His6_hTSLP (wild type) …; assay: SPR, in-house hTSLP QB11630 analyte

IC50, inhibition of TSLP-induced pSTAT5 (AlphaLISA, MFI) in BaF3 cells expressing hTSLPR/hIL-7Rα; stimulus hTSLP QB11631 [1]: 0.78 nM | IC50, inhibition of TSLP-induced pSTAT5 (AlphaLISA, MFI) in BaF3 cells expressing hTSLPR/hIL-7Rα; stimulus cyTSLP QB11632 [2]: 0.28 nM | IC50, inhibition of TSLP-induced CCL17 release from primary human monocytes (ELISA, pg/mL); stimulus cyTSLP QB11632 [3]: 0.0027 nM | Kd [4]: 0.0263 nM | Kd [5]: 0.831 nM | Kd [6]: 0.075 nM | Kd [7]: 0.0295 nM | Kd [8]: 0.0187 nM | IC50, inhibition of TSLP-induced proliferation of BaF3 cells expressing hTSLPR/hIL-7Rα (CellTiter-Glo, RLU); stimulus hTSLP QB11631 [9]: 0.012 nM | IC50, inhibition of hTSLP-induced IL-5 secretion from human ILC2s [10]: 0.35 nM | IC50, inhibition of hTSLP-induced IL-5 secretion from human ILC2s [11]: 0.1 nM | IC50, inhibition of TSLP-induced pSTAT5 (AlphaLISA, MFI) in cultured primary human ILC2 cells; stimulus hTSLP QB11630 [12]: 1.5 nM | Kd [13]: 0.0118 nM | Kd [14]: 0.0163 nM | Kd [15]: 0.0778 nM | Kd [16]: 0.00502 nM | IC50, inhibition of TSLP-induced pSTAT5 (AlphaLISA, MFI) in BaF3 cells expressing hTSLPR/hIL-7Rα; stimulus hTSLP QB11630 [17]: 1.7 nM | IC50, inhibition of TSLP-induced CCL17 release from primary human monocytes (ELISA, pg/mL); stimulus hTSLP QB11631 [18]: 0.0013 nM | IC50, inhibition of TSLP-induced pSTAT5 (AlphaLISA, MFI) in cultured primary human ILC2 cells; stimulus cyTSLP QB11632 [19]: 0.46 nM | IC50, inhibition of TSLP-induced proliferation of BaF3 cells expressing hTSLPR/hIL-7Rα (CellTiter-Glo, RLU); stimulus cyTSLP QB11632 [20]: 0.012 nM | IC50, inhibition of TSLP-induced proliferation of BaF3 cells expressing hTSLPR/hIL-7Rα (CellTiter-Glo, RLU); stimulus native hTSLP from healthy donor 1 [21]: 0.0014 nM | IC50, inhibition of TSLP-induced CCL17 release from primary human monocytes (ELISA, pg/mL); stimulus hTSLP QB11630 [22]: 0.0045 nM | IC50, inhibition of TSLP-induced proliferation of BaF3 cells expressing hTSLPR/hIL-7Rα (CellTiter-Glo, RLU); stimulus hTSLP QB11630 [23]: 0.0058 nM | IC50, inhibition of TSLP-induced proliferation of BaF3 cells expressing hTSLPR/hIL-7Rα (CellTiter-Glo, RLU); stimulus cyTSLP QB11633 [24]: 0.0022 nM | IC50, inhibition of TSLP-induced pSTAT5 (AlphaLISA, MFI) in cultured primary human ILC2 cells; stimulus hTSLP QB11631 [25]: 3.1 nM | IC50, inhibition of TSLP-induced proliferation of BaF3 cells expressing hTSLPR/hIL-7Rα (CellTiter-Glo, RLU); stimulus native hTSLP from healthy donor 2 [26]: 0.0018 nM
B1: anti-hTSLP IgG1-D265A antibody QB11718 (antibody, V domains shown)
VH: QVQLVQSGPEVKKPGSSVKVSCKASGYIFTDYAMHWVRQRPGQDLEWMGTFIPLLDTSDYNQNFKGRATITADKSTSTAYMELSSLRSEDTAVYYCARMGVTHSYVMDAWGQGTLVTVSS
VL: EIVLTQSPGTLSLSPGERATLSCRASQHISRSVHWYQQKPGEAPRLLIYFASQSISGIPDRFSGSGSGTDFTLTISRLESEDFAVYYCQQSYSFPYTFGRGTKVEIKR
notes: QB11237 altered for MabPair production; alterations are in the entries; also called lead anti-hTSLP antibody QB11718

IC50 [27]: 1.5 nM | IC50 [28]: 1.01 nM | binding result [29]: binds
B2: chimeric anti-hIL-33 antibody QB10998 (antibody, human IgG1, kappa, V domains shown)
VH: EVMLVESGGGLVKPGGSLKLSCAASGFTFYSSAMSWVRQTPEKRLEWVATISSGGSNTYYPDSVKGRFTISRDNAKNTLYLQMSSLGSEDTAMYYCASAYYGRRYDAMDYWGQGTSVTVSS
VL: DIVMTQAAPSIPVTPGESVSISCKSSKSLLHSNGNTYLYWFLQRPGQSPQLLIYRMSNLASGVPDRFSGSGSGTAFTLRISRVEAEDVGVYYCMQHLENPYTFGGGTKLELNR
notes: Text says murine VH on human IgG4 constant regions; the printed HC entry looks like IgG1; also called chimeric antibody

fold lower binding affinity against QB10985 [30]: ~3 fold | Kd [5]: 1.27 nM | koff [5]: 0.000174 s⁻¹ | kon [5]: 137000 M⁻¹ s⁻¹ | Kd [6]: 0.131 nM | koff [6]: 0.000132 s⁻¹ | kon [6]: 1.01e+06 M⁻¹ s⁻¹ | IC50, inhibition of TSLP-induced proliferation of BaF3 cells expressing hTSLPR/hIL-7Rα (CellTiter-Glo, RLU); stimulus hTSLP QB11631 [9]: 0.17 nM | Kd [14]: 0.0595 nM | koff [14]: 0.000192 s⁻¹ | kon [14]: 3.23e+06 M⁻¹ s⁻¹ | Kd [15]: 0.154 nM | koff [15]: 0.000196 s⁻¹ | kon [15]: 1.27e+06 M⁻¹ s⁻¹ | Kd [16]: 0.004 nM | koff [16]: 0.000142 s⁻¹ | kon [16]: 3.56e+07 M⁻¹ s⁻¹ | IC50, inhibition of TSLP-induced proliferation of BaF3 cells expressing hTSLPR/hIL-7Rα (CellTiter-Glo, RLU); stimulus cyTSLP QB11632 [20]: 0.34 nM | IC50, inhibition of TSLP-induced proliferation of BaF3 cells expressing hTSLPR/hIL-7Rα (CellTiter-Glo, RLU); stimulus native hTSLP from healthy donor 1 [21]: 0.012 nM | IC50, inhibition of TSLP-induced proliferation of BaF3 cells expressing hTSLPR/hIL-7Rα (CellTiter-Glo, RLU); stimulus hTSLP QB11630 [23]: 0.1 nM | IC50, inhibition of TSLP-induced proliferation of BaF3 cells expressing hTSLPR/hIL-7Rα (CellTiter-Glo, RLU); stimulus cyTSLP QB11633 [24]: 0.12 nM | IC50, inhibition of TSLP-induced proliferation of BaF3 cells expressing hTSLPR/hIL-7Rα (CellTiter-Glo, RLU); stimulus native hTSLP from healthy donor 2 [26]: 0.012 nM
B3: anti-hTSLP IgG1-D265A antibody QB11764 (antibody, V domains shown)
VH: EVQLVESGGGLVQPGGSLRLSCAASGFDFSSYWISWVRQAPGKRPEWIASIDIDIDIADYASWAKGRFTISRDNSKNTLYLQMNSLRAEDTAVYYCVRNLGLWGPGTLVTVSS
VL: DIQMTQSPSSLSASVGDRVTITCQSSQNVYDKDALAWYQHKPGKRPKLLIYEASRLASGVPSRFSGSGSGTHFTLTISSLQPEDAATYYCAGTRIDNIYTFGDGTKVEIKR
notes: QB11548 altered for MabPair production; alterations are in the entries; also called lead anti-hTSLP antibody QB11764
